Measured values reported in US20190169302A1 (SORRENTO THERAPEUTICS, published 2019).
Changes are numbered by the printed parent chain.

T1: Recombinant human OX40/His (UniProt P43489 29-216)
T1 chain: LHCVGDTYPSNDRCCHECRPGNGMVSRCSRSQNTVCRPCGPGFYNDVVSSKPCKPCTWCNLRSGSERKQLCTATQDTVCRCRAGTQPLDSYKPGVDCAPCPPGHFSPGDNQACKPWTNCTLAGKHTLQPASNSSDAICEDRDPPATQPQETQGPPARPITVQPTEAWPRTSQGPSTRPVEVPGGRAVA

T2: membrane-bound human OX40 (on human OX40-expressing cells) (human, UniProt P43489 29-277)
T2 construct: also called human OX40-expressing MJ cells; OX40+ HEK293-NFkB-luciferase reporter cells
T2 sequence: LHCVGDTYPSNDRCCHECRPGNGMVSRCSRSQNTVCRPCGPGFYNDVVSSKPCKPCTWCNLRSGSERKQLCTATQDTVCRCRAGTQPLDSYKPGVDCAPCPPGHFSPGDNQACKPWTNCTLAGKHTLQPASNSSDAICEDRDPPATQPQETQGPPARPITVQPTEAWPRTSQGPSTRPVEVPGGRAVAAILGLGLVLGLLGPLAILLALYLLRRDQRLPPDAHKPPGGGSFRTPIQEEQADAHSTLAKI

T3: human OX40 antigen (soluble, titrated in the ELISA of Example 1) (UniProt P43489 29-216)
T3 chain: T1 chain

T4: mouse OX40 (mouse, UniProt P47741 20-211, limits assumed)
T4 construct: Capture on Ni-NTA implies a His tag; also called mouse OX40 antigen
T4 sequence (looked up): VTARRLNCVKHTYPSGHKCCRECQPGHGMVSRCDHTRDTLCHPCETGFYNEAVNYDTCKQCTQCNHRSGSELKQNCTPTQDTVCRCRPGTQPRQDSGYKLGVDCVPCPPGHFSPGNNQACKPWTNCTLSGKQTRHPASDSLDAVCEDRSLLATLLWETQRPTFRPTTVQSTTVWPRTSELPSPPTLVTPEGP

T5: Recombinant human OX40/His (human, UniProt P43489 29-216, limits assumed)
T5 construct: SPR analyte; also called human OX40 proteins; not shown: His tag
T5 sequence: T1 chain

B1: 2B4 wild type anti-OX40 antibody (antibody, V domains shown)
VH: QMQLVQSGAEVKKPGASVKVSCKTSGYTFTGYYLHWVRQAPGQGLEWMGIINPSDGSTRNAQKFEGRVTMTRDTSTSTVYMELSSLSPEDTAVYYCARDLEYIGSGSLSWFDPWGQGTLVTVSS
VL: QPVLTQPASVSGSPGQSITISCTGTSSDLGAYDYVSWYQQQPGQAPKLIIYDVNNRPSGVSNRFSGSKSGNTASLTISGLQAEDEADYYCSSYTSSSTLVYVFGTGTKVTVL
notes: Fully human antibody of an IgG class, captured or detected through human Fc; the isotype control used was IgG1; also called 2B4 (WT); wild type 2B4
B2: 5-A8 variant anti-OX40 antibody (antibody, V domains shown)
VH: B1 VH with M2V
VL: QSALTQPASVSGSPGQSITISCTGSSSDIGGYNSVSWYQQYPGKAPKLIIYDVNNRPSGVSNRFSGSKSGNTASLTISGLQAEDEADYYCSSYTFHTGLVYVFGTGTKVTVL
B3: 5-A6 variant anti-OX40 antibody (antibody, V domains shown)
VH: B1 VH with M2V
VL: B2 VL with H96D
B4: 5-F5 variant anti-OX40 antibody (antibody, V domains shown)
VH: B1 VH with M2V
VL: B2 VL with F95Y, H96D
B5: 5-G8 variant anti-OX40 antibody (antibody, V domains shown)
VH: B1 VH with M2V
VL: B2 VL with F95Y, H96Y, G98E
B6: 5-C8 variant anti-OX40 antibody (antibody, V domains shown)
VH: B1 VH with M2V
VL: B2 VL with F95H, H96N
B7: 5-H6 variant anti-OX40 antibody (antibody, V domains shown)
VH: B1 VH with M2V
VL: B2 VL with F95Y, H96D, T97N, G98D

Target: T1, Recombinant human OX40/His
Test: SPR

Kd [nM] | Molecule
332 | B1

Target: T1, Recombinant human OX40/His
Test: SPR
Remark: another data set of the same source

Kd [nM] | Molecule
4.37 | B2
2.41 | B3
3.01 | B4
3.8 | B5
4.39 | B6
3.51 | B7
332 | B1

These molecules were tested against T2, membrane-bound human OX40 (on human …) (assay: flow cytometry on human OX40-expressing MJ cells).

binding result | Molecule
binds | B1

Target: T3, human OX40 antigen (soluble, titrated …)
Test: ELISA, immobilized Ab

IC50 [µg/mL] | Molecule
0.0163 | B2
0.0117 | B3
0.0263 | B4
0.0254 | B5
0.00353 | B6
0.0275 | B7
0.168 | B1

What follows are molecules tested against T4, mouse OX40 (assay: ELISA, OX40 antigen captured on Ni-NTA plate, antibody at 1 ug/mL).
Method: Ni-NTA plate was captured with 50 ul per well of human, mouse, and rhesus OX40 antigen solutions at a concentration of 1 ug/ml in PBS and incubated 1 hour at room temperature. After washing the plate with 0.05% PBS/Tween, 1 ug/mL the human anti-OX40 antibodies in Blocker™ Casein in PBS (Thermo Fisher Catalog Number: 37528) were added with 50 ul per well and incubated for one hour at room temperature. The plate was washed again with 0.05% PBS/Tween and incubated with 50 ul of Jackson Immuno Research Peroxidase AffiniPure Goat Anti-Human IgG, Fcγ Fragment (Catalog Number: 109-035-098) for one hour at room temperature. After washing, the plate was developed with 1-Step™ Ultra TMB-ELISA Substrate Solution (Thermo Fisher Catalog Number: 34028). The plate was read in the FlexStation 3 at OD 450.

binding result | Molecule
no binding (tested: 1 ug/mL) | B1

What follows are molecules tested against human OX40/His (UniProt P43489) (assay: SPR).

Kd [nM] | Molecule
3.2 | MOXR0916/RG7888

The molecules below were run against T5, Recombinant human OX40/His (assay: SPR (Biacore T200), antibody captured by anti-human Fc, OX40/His as analyte, 1:1 model).
Method: Kinetic interactions between antibodies and human OX40 proteins were measured at 25° C. using Biacore T200 surface plasmon resonance (GE Healthcare). Anti-human fragment crystallizable region (Fc region) antibody was immobilized on a CMS sensor chip to approximately 8000 resonance units (RU) using standard N-hydroxysuccinimide/N-Ethyl-N′-(3-dimethylaminopropyl) carbodiimide hydrochloride (NHS/EDC) coupling methodology. The anti-OX40 antibody (2 μg/mL) was captured for 60 seconds at a flow rate of 10 μL/minute. Recombinant human OX40/His was serially diluted in a running buffer of 0.01 M HEPES pH 7.4, 0.15 M NaCl, 3 mM EDTA, 0.05% v/v Surfactant P20 (HBS-EP+). All measurements were conducted in HBS-EP+ buffer with a flow rate of 30 μL/minute. A 1:1 (Langmuir) binding model was used to fit the data.

Kd [nM] | Molecule
< 5 | B2
< 5 | B3
< 5 | B4
< 5 | B5
< 5 | B6
< 5 | B7
